{
  "source": "patent US20240067758A1",
  "about": "(UCB, published 2024)",
  "binders": {"B1": {"name": "IL13H/IL22K knob in hole bispecific (bispecific antibody, human IgG4 S228P, kappa)", "heavy 1": "not shown", "light 1": "AVQLTQSPSSLSASVGDRVTITCQASEDIYTNLAWYQQKPGKAPKLLIYWASTLASGVPSRFSGSGSGTDFTLTISSLQPEDFATYYCQASVYGNAADSRYTFGGGTKVEIKRTVAAPSVFIFPPSDEQLKSGTASVVCLLNNFYPREAKVQWKVDNALQSGNSQESVTEQDSKDSTYSLSSTLTLSKADYEKHKVYACEVTHQGLSSPVTKSFNRGEC", "heavy 2": "EVQLVQSGAEVKKPGSSVKVSCKASGYSFTSYYIHWVRQAPGQGLEWMGRIGPGSGDINYNEKFKGRATFTVDKSTSTAYMELSSLRSEDTAVYYCARFHYDGADWGQGTLVTVSSASTKGPSVFPLAPCSRSTSESTAALGCLVKDYFPEPVTVSWNSGALTSGVHTFPAVLQSSGLYSLSSVVTVPSSSLGTKTYTCNVDHKPSNTKVDKRVESKYGPPCPPCPAPEFLGGPSVFLFPPKPKDTLMISRTPEVTCVVVDVSQEDPEVQFNWYVDGVEVHNAKTKPREEQFNSTYRVVSVLTVLHQDWLNGKEYKCKVSNKGLPSSIEKTISKAKGQPREPQVYTLPPSQEEMTKNQVSLSCAVKGFYPSDIAVEWESNGQPENNYKTTPPVLDSDGSFFLVSRLTVDKSRWQEGNVFSCSVMHEALHNHYTQKSLSLSLGK", "light 2": "DIQMTQSPSSLSASVGDRVTITCKASQNINENLDWYQQKPGKAPKLLIYYTDILQTGIPSRFSGSGSGTDYTLTISSLQPEDFATYYCYQYYSGYTFGQGTKLEIKRTVAAPSVFIFPPSDEQLKSGTASVVCLLNNFYPREAKVQWKVDNALQSGNSQESVTEQDSKDSTYSLSSTLTLSKADYEKHKVYACEVTHQGLSSPVTKSFNRGEC"}, "B2": {"name": "IL13K/IL22H knob in hole bispecific (bispecific antibody, human IgG4 S228P, kappa)", "heavy 1": "not shown", "light 1": "DIQMTQSPSSLSASVGDRVTITCKASQNINENLDWYQQKPGKAPKLLIYYTDILQTGIPSRFSGSGSGTDYTLTISSLQPEDFATYYCYQYYSGYTFGQGTKLEIKRTVAAPSVFIFPPSDEQLKSGTASVVCLLNNFYPREAKVQWKVDNALQSGNSQESVTEQDSKDSTYSLSSTLTLSKADYEKHKVYACEVTHQGLSSPVTKSFNRGEC", "heavy 2": "EVQLVESGGGLVQPGGSLRLSCAVSGFSLSSYAMIWVRQAPGKGLEWIGIIDIEGSTYYASWAKGRFTISRDNSKNTVYLQMNSLRAEDTAVYYCARDRFVGVDIFDPWGQGTLVTVSSASTKGPSVFPLAPCSRSTSESTAALGCLVKDYFPEPVTVSWNSGALTSGVHTFPAVLQSSGLYSLSSVVTVPSSSLGTKTYTCNVDHKPSNTKVDKRVESKYGPPCPPCPAPEFLGGPSVFLFPPKPKDTLMISRTPEVTCVVVDVSQEDPEVQFNWYVDGVEVHNAKTKPREEQFNSTYRVVSVLTVLHQDWLNGKEYKCKVSNKGLPSSIEKTISKAKGQPREPQVYTLPPSQEEMTKNQVSLSCAVKGFYPSDIAVEWESNGQPENNYKTTPPVLDSDGSFFLVSRLTVDKSRWQEGNVFSCSVMHEALHNHYTQKSLSLSLGK", "light 2": "AVQLTQSPSSLSASVGDRVTITCQASEDIYTNLAWYQQKPGKAPKLLIYWASTLASGVPSRFSGSGSGTDFTLTISSLQPEDFATYYCQASVYGNAADSRYTFGGGTKVEIKRTVAAPSVFIFPPSDEQLKSGTASVVCLLNNFYPREAKVQWKVDNALQSGNSQESVTEQDSKDSTYSLSSTLTLSKADYEKHKVYACEVTHQGLSSPVTKSFNRGEC"}, "B3": {"name": "11041 (parental) (Fab, V domains shown)", "VH": "QSVEESGGRLVTPGTPLTLTCTVSGFSLSSYAMIWVRQAPGEGLEWIGIIDIDGSTYYASWAKGRFTISRTSTTVDLKITSPTTGDTATYFCARDRFVGVDIFDPWGPGTLVTVSS", "VL": "AVVLTQTASPVSAPVGGTVTIKCQASEDIYTNLAWYQQKPGQPPKLLIYWASTLASGVPSRFKGSGSGTEFTLTISDLECADAATYYCQACVYGNSADSRYTFGGGTEVVVK"}, "B4": {"name": "11070 (Fab, V domains shown)", "VH": "EVQLQESGPGLVQPSQTLSPTCTVSGFSLTSYSVHWVRQHSGKSLEWMGRMWSDGDTSYNSAFTSRLSITRDTSKSQVFLKMNSLQTEDTGTYYCARSLDFYYDTTLAFWGPGTTVTVSS", "VL": "DIVMTQTPSNLAASPGESVSINCKASKTISKYLAWYQQKPGKANKLLIYSGSTLQSGTPSRFSGSGSSTDFTLTIRNLEPEDFGLYYCQQHNEYPLTFGSGTKLEIK"}, "B5": {"name": "TrYbe molecule with 11070 gL7gH16 IL22 domain (other)", "VL": "DIQMTQSPSSVSASVGDRVTITCKASKTISKYLAWYQQKPGKANKLLIYSGSTLQSGVPSRFSGSGSGTDFTLTISSLQPEDFATYYCQQHNEYPLTFGQGTKLEIK", "VH": "EVQLQESGPGLVKPSQTLSLTCTVSGFSLTSYSVHWVRQHPGKGLEWIGRMWSDGDTSYNTAFTSRLTISRDTSKNQVSLKLSSVTAADTAVYYCARSLDFYYDTTLAFWGQGTTVTVSS"}},
  "key": {"Human IL22 [1]": {"target": "T1, Human IL22 (human, UniProt Q9GZX6 34-179)", "T1 sequence": "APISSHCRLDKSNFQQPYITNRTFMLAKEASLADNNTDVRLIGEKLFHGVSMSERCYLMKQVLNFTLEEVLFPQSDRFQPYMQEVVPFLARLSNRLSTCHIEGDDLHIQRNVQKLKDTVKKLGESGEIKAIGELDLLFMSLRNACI", "test": "cell-based or functional assay"}, "Human IL13 [2]": {"target": "T2, Human IL13 (human, UniProt P35225 35-146, limits assumed)", "test": "cell-based or functional assay"}, "Human IL22 [3]": {"target": "T1, Human IL22", "test": "cell-based or functional assay", "remark": "listed apart in the source"}, "Human IL13 [4]": {"target": "T2, Human IL13", "test": "cell-based or functional assay", "remark": "listed apart in the source"}, "Human IL13 [5]": {"target": "T2, Human IL13", "test": "cell-based or functional assay", "remark": "listed apart in the source"}, "Human IL13 [6]": {"target": "T2, Human IL13", "test": "cell-based or functional assay", "remark": "listed apart in the source"}, "Human IL22 [7]": {"target": "T1, Human IL22", "test": "cell-based or functional assay", "remark": "listed apart in the source"}, "Human IL13 [8]": {"target": "T2, Human IL13", "test": "cell-based or functional assay", "remark": "listed apart in the source"}, "Human IL22 [9]": {"target": "T1, Human IL22", "test": "cell-based or functional assay", "remark": "listed apart in the source"}, "Human IL22 [10]": {"target": "T1, Human IL22", "test": "SPR (Biacore); human IL22"}, "Human IL22 [11]": {"target": "T1, Human IL22", "test": "SPR (Biacore); human IL22", "remark": "listed apart in the source"}, "Human IL22 [12]": {"target": "T1, Human IL22", "test": "SPR Biacore T200; mean KD", "experimental": "BIA (Biomolecular Interaction Analysis) was performed using T200 (GE Healthcare). Affinipure IgG-F(ab′)₂ Fragment goat anti-human IgG, F(ab′)₂ fragment specific (Jackson ImmunoResearch) was immobilized on a CM5 Sensor Chip via amine coupling chemistry to a capture level of ˜5000 response units (RUs). HBS-EP+buffer (10 mM HEPES pH 7.4, 0.15 M NaCl, 3 mM EDTA, 0.05% Surfactant P20, GE Healthcare) was used as the running buffer with a flow rate of 10 μL/min.\nThe surface was generated by 2×10 μL injections of 50 mM HCl, interspersed by a 10 μL injection of 5 mM NaOH at flowrate of 10 μL/min. Background subtraction binding curves were analyzed using the T200 evaluation software (version 3.0) following standard procedures. Kinetic parameters were determined from the fitting algorithm."}},
  "note": "Where “and” joins values, the source holds several entries; their conditions need not be identical. Equal entries are not always repeated.",
  "data": [
    {"binder": "B1", "values": [
      {"measurement": "IC50 (M) Geomean; IL22-induced IL-10 release, COLO205 cells; PB8842 (N = 2)", "setting": "Human IL22 [1]", "value": "7.13e-11", "unit": "M"},
      {"measurement": "IC50 (read off the curve), inhibition of eotaxin-3 secretion, primary human keratinocytes stimulated with IL-13 and IL-22 at 100 ng/ml", "setting": "Human IL13 [2]", "value": "~0.8", "unit": "nM"},
      {"measurement": "IC50 (M) Geomean; IL22-induced IL-10 release, COLO205 cells; PB8919 (N = 2)", "setting": "Human IL22 [3]", "value": "5.73e-11", "unit": "M"},
      {"measurement": "IC50 (pM) Geomean, N = 2; STAT-6 reporter assay, HEK-Blue IL-4/IL13 cells; PB8919", "setting": "Human IL13 [4]", "value": 2.3, "unit": "pM"},
      {"measurement": "IC50 (pM), concatenated IC50 values; STAT-6 reporter assay; PB8919", "setting": "Human IL13 [4]", "value": "2 pM and 2.7 pM"},
      {"measurement": "IC50 (pM) Geomean, N = 2; STAT-6 reporter assay, HEK-Blue IL-4/IL13 cells; PB8842", "setting": "Human IL13 [5]", "value": 4.9, "unit": "pM"},
      {"measurement": "IC50 (pM), concatenated IC50 values; STAT-6 reporter assay; PB8842", "setting": "Human IL13 [5]", "value": "4.6 pM and 5.2 pM"}
    ]},
    {"binder": "B2", "values": [
      {"measurement": "IC50 (read off the curve), inhibition of eotaxin-3 secretion, primary human keratinocytes stimulated with IL-13 and IL-22 at 100 ng/ml", "setting": "Human IL13 [2]", "value": "~5", "unit": "nM"},
      {"measurement": "IC50 (pM) Geomean, N = 2; STAT-6 reporter assay, HEK-Blue IL-4/IL13 cells; PB8841", "setting": "Human IL13 [6]", "value": 3.4, "unit": "pM"},
      {"measurement": "IC50 (M) Geomean; IL22-induced IL-10 release, COLO205 cells; PB8841 (N = 2)", "setting": "Human IL22 [7]", "value": "6.59e-11", "unit": "M"},
      {"measurement": "IC50 (pM) Geomean, N = 2; STAT-6 reporter assay, HEK-Blue IL-4/IL13 cells; PB8920", "setting": "Human IL13 [8]", "value": 2.9, "unit": "pM"},
      {"measurement": "IC50 (pM), concatenated IC50 values; STAT-6 reporter assay; PB8920", "setting": "Human IL13 [8]", "value": "2.1 pM and 4 pM"},
      {"measurement": "IC50 (M) Geomean; IL22-induced IL-10 release, COLO205 cells; PB8920 (N = 2)", "setting": "Human IL22 [9]", "value": "6.38e-11", "unit": "M"}
    ]},
    {"binder": "B3", "values": [
      {"measurement": "Kd", "setting": "Human IL22 [10]", "value": 0.569, "unit": "nM"}
    ]},
    {"binder": "B4", "values": [
      {"measurement": "Kd", "setting": "Human IL22 [11]", "value": 0.049, "unit": "nM"}
    ]},
    {"binder": "B5", "values": [
      {"measurement": "Kd", "setting": "Human IL22 [12]", "value": "< 0.1", "unit": "nM"}
    ]}
  ]
}
